{"source": "paper PMC3749527", "target": "Respiratory syncytial virus nucleoprotein N, R234A mutant (human respiratory syncytial virus) (UniProt P03418)"}
{"substance": "Respiratory syncytial virus nucleoprotein N, R234A mutant (from UniProt P03418 1-391) (natural protein)", "values": [{"measurement": "polymerase activity (viral RNA synthesis) in an HRSV plasmid-based minigenome luciferase assay in BSRT7/5 cells, compared to wt N", "result": "68 % of wt N"}]}
